What was measured:
[1] = tested on: T1, hCdc45-His6 (Homo sapiens); test: EMSA; conditions: EMSA: 50 mM HEPES-KOH pH 7.5, 150 mM KCl, 0.5 mM DTT, 50 ug/ml BSA, 30 C 10 min, SPR: 20 mM HEPES-KOH pH 7.5, 150 mM KCl, 1 mM DTT, 3 mM EDTA, 0.005% P20 …
T1 sequence: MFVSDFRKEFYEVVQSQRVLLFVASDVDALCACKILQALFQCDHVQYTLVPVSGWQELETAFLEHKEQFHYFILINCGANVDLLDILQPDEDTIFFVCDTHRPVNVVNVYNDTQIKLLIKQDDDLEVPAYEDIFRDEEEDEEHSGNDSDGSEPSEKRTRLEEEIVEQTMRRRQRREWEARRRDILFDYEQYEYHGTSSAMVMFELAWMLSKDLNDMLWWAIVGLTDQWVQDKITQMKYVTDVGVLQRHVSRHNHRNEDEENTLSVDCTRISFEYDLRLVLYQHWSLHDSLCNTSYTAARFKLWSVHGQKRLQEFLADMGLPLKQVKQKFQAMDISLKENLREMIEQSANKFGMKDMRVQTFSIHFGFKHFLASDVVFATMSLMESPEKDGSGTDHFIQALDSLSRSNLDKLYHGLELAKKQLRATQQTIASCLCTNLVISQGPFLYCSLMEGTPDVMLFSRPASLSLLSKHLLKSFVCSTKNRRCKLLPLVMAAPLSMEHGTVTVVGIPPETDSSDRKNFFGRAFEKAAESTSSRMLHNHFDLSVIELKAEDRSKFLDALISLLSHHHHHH

[2] = tested on: T1, hCdc45-His6 (Homo sapiens); test: SPR; conditions: 3 mM EDTA, EMSA: 50 mM HEPES-KOH pH 7.5, 150 mM KCl, 0.5 mM DTT, 50 ug/ml BSA, 30 C 10 min, SPR: 20 mM HEPES-KOH pH 7.5, 150 mM KCl, 1 mM DTT, 0.005% P20 …; for Kd: Cdc45 immobilized by anti-His; for binding signal: scale: fold weaker than Y/bubble

## 113-mer ssDNA
[1]
  binding signal (% bound at 5 uM Cdc45): 85

## bubble M5M6 (22 bp, 20 nt bubble, 22 bp)
[2]
  Kd: 8 nM

## R-loop
[2]
  binding signal: > 10

## Y-shaped DNA M3S4 (17 bp, two 17-mer overhangs)
[2]
  Kd: 7.7 nM

## D-loop M5M6M2
[2]
  binding signal: > 10

## 67-mer ssDNA
[1]; 2 nM DNA
  binding signal (fold less efficient than 113-mer): 8.5

— publication PMC3936751
